Test results reported in patent US11994512B2, “Single-cell genomic methods to generate ex vivo cell systems that recapitulate in vivo biology with improved fidelity” (Massachusetts Institute of Technology, priority 2018, dated 2024).

Tested on: intracellular proteome of ENR+CD and ENR organoids
Assay: LC-MS/MS TMT proteomics of ENR+CD versus ENR organoids
Type: cell-based, C57BL/6 mice
Settings: for change: up = enriched in ENR+CD, down = enriched in ENR, FDR<0.05 and log fold change cut-off
[1] = protein abundance, ENR+CD versus ENR organoids, aggregate of the four sample pairs
[2] = protein abundance, ENR+CD versus ENR organoids, replicate M1-1, log2 ratio
[3] = protein abundance, ENR+CD versus ENR organoids, replicate M1-2, log2 ratio
[4] = protein abundance, ENR+CD versus ENR organoids, replicate M2-1, log2 ratio
[5] = protein abundance, ENR+CD versus ENR organoids, replicate M2-2, log2 ratio
[6] = ENR+CD versus ENR organoids, sample pairs in aggregate (n=4, 2 technical replicates from two biological donors)
[7] = protein abundance ratio ENR+CD versus ENR organoids, sample pair M1-1, LC-MS/MS TMT proteomics
[8] = protein abundance ratio ENR+CD versus ENR organoids, sample pair M1-2, LC-MS/MS TMT proteomics
[9] = protein abundance ratio ENR+CD versus ENR organoids, sample pair M2-1, LC-MS/MS TMT proteomics
[10] = protein abundance ratio ENR+CD versus ENR organoids, sample pair M2-2, LC-MS/MS TMT proteomics

B1: Q3V1V3 (protein, UniProt Q3V1V3 1-845, looked up)
chain: MSSKQEIMDDQRFRRVSKDPRFWEMPEKERKVKIDKRFRAMFHDKKFKLNYAVDKRGRPISHSTTEDLKRFYDLSDSDSDLSDEESKILSQKKAKQKKKQTKKEAKSIEKPIEEKKKETKKTDQKDSINKHDLNNSERVQKMKNSQKPQKIDSEISPKKDNEEFLQNKKKKRGTTDLSVEALPKGKLRTKDSSTSEMVKSSTMSSSKAKREKQSVVPVIMAKDNDGKMPDEDALEEDSDSASELGSDEESEDEIISDGKTSADEDESEEEDEEEEEDSEEEEEEEEEDESDSGPDLARGKGNVETSSEDEDDLADLFPEEPGFEHAWRELDKDAPRADEITRRLAVCNMDWDRLKAKDLLALFNSFKPKGGVVFSVKIYPSEFGKERMKEEQVQGPVELLSIPEDAPEKDWASREKLRDYQFKRLKYYYAVAECDSPETASKIYEDCDGLEFESSCSFIDLRFIPDDITFDDEPKDVALEVDLTAYKPKYFTSAAMGTSTVEITWDETDHERITTLNRKFKKDELLDMDFQAYLASSSEDEEEVEEAPEGEEGVNIGEDGKTKKSQKDDEEQIAKYRQLLQVIQEKEKKGKENDMEMEIKWVPGLKESAEEMVKNKLEGKDKLTPWEQFLEKKKEKKRLKKKQKALAEEDSEDELPSDVDFNDPYFAEEVKKIGIKKKSMKSAKDSASSEEETDLEKQKAEMALLVMDEEEDSKKHFNYDKIVEHQNLSKKKKKQLMKKKELVEDDFEVNVSDARFQAMYTSHLFNLDPSDPNFKKTKAMEKILEEKARHRERKEELLIQAVERAQQDTGKPTQKQPMDPALSMLIKSVKNKTEQFQARKKQRVK
modifications: full-length
- Average logFC [1]: −1.244
- M1-1 Log2 Median Normalized [2]: −1.45
- M1-2 Log2 Median Normalized [3]: −0.805
- M2-1 Log2 Median Normalized [4]: −0.9155
- M2-2 Log2 Median Normalized [5]: −1.805
- change: down

B2: Q3V3I2 (protein, UniProt Q3V3I2 1-354, looked up)
chain: MGSGISSESKESARRSKELEKKLQEDAERDARTVKLLLLGAGESGKSTIVKQMKIIHKNGYSKQECMEFKAVIYSNTLQSILAIVKAMATLGIDYVNPRSREDQEQLHSMANTLEDGDMTPQLAEIIKRLWGDPGIQACFERASEYQLNDSAAYYLNDLDRLTAPGYVPNEQDVLHSRVKTTGIIETQFSFKDLNFRMFDVGGQRSERKKWIHCFEGVTCIIFCAALSAYDMVLVEDEEVNRMHESLHLFNSICNHKYFATTSIVLFLNKKDLFQEKVAKVHLSICFPEYTGPNTFEDAGNYIKNQFLDLNLKKEDKEIYSHMTCATDTQNVKFVFDAVTDIIIKENLKDCGLF
modifications: full-length
- Average logFC [1]: −1.949
- M1-1 Log2 Median Normalized [2]: −1.715
- M1-2 Log2 Median Normalized [3]: −1.092
- M2-1 Log2 Median Normalized [4]: −2.2685
- M2-2 Log2 Median Normalized [5]: −2.719
- change: down

B3: Q52KI8 (protein, UniProt Q52KI8 1-946, looked up)
chain: MDAGFFRGTSAEQDNRFSNKQKKLLKQLKFAECLEKKVDMSKVNLEVIKPWITKRVTEILGFEDDVVIEFIFNQLEVKNPDSKMMQINLTGFLNGKNAREFMGELWPLLLSAQENIAGIPSAFLELKKEEIKQRQIEQEKLASLKKQDEDKDKRDKEEKESSREKRERSRSPRRRKSRSPSPRRRSSPVRRERKRSHSRSPRHRTKSRSPSPAPEKKEKSPELPEPSVRMKDSSVQEATSTSDILKAPKPEPVPEPKEPSPEKNSKKEKEKTRPRSRSRSKSRSRTRSRSPSHTRPRRRHRSRSRSYSPRRRPSPRRRPSPRRRTPPRRMPPPPRHRRSRSPGRRRRRSSASLSGSSSSSSSSRSRSPPKKPPKRTSSPPRKTRRLSPSASPPRRRHRPSSPATPPPKTRHSPTPQQSNRTRKSRVSVSPGRTSGKVTKHKGTEKRESPSPAPKPRKVELSESEEDKGSKMAAADSVQQRRQYRRQNQQSSSDSGSSSTSEDERPKRSHVKNGEVGRRRRHSPSRSASPSPRKRQKETSPRMQMGKRWQSPVTKSSRRRRSPSPPPARRRRSPSPAPPPPPPPPPPRRRRSPTPPPRRRTPSPPPRRRSPSPRRYSPPIQRRYSPSPPPKRRTASPPPPPKRRASPSPPPKRRVSHSPPPKQRSPTVTKRRSPSLSSKHRKGSSPGRSTREARSPQPNKRHSPSPRPRAPQTSSPPPVRRGASASPQGRQSPSPSTRPIRRVSRTPEPKKIKKTAMATQRNIRRVSKSPKADSLSRAASPSPQSVRRVSSSRSVSGSPEPAAKKPPAPPSPVQSQSPSTNWSPAVPAKKAKSPTPSLSPARNSDQEGGGKKKKKKKDKKHKKDKKHKKHKKHKKEKAVTIATPATAAPAAVSAATTTSAQEEPAAAPEPRKETESEAEDDNLDDLERHLREKALRSMRKAQVSPQS
modifications: full-length
- Average logFC [6]: −1.144
- M1-1 Log2 Median Normalized [7]: −1.036
- M1-2 Log2 Median Normalized [8]: −0.819
- M2-1 Log2 Median Normalized [9]: −1.2825
- M2-2 Log2 Median Normalized [10]: −1.437
- change: down

B4: Q3UYK3 (protein, UniProt Q3UYK3 1-1264, looked up)
chain: MWVNPEEVLLANALWITERANPYFILQRRKGHGGDGGGGGGLAGLLVGTLDVVLDSSARVAPYRILYQTPDSLVYWTIACGGSRKEVTEHWEWLEQNLLQTLSIFENENDVTTFVRGKIQGIIAEYNKINDVKEDEDTEKFKEAIVKFHRLFGMPEEEKLVNYYSCSYWKGRVPRQGWMYLSINHLCFSSFLMGREAKLVIRWVDITQLEKNATLLLPDMIKVSTRSSEHFFSVFLNINETFKLMEQLANIAMRQLLDNEGFEQDRSLPKLKKKSPKKVSALKRDLDARAKSERYRALFRLPKDEKLDGHTDCTLWTPFNKMHILGQMFVSTNYICFTSKEENLCSLIIPLREVTIVEKADSCSVLPSPLSISTRNRMTFLFANLKDRDFLVQRISDFLQQTTSRIYSDKEFSGSCNSSDDEVYSRPSSLVSSSPQRSTSSDADGERPFNLNGNSVPTATQTLMTMYRRRSPEEFNPKLAKEFLKEQAWKIHFAEYGQGICMYRTEKTRELVLKGIPESMRGELWLLLSGAINEKATHPGYYEGLVEKSMGKYNLATEEIERDLHRSLPEHPAFQNEMGIAALRRVLTAYAFRNPNIGYCQAMNIVTSVLLLYAKEEEAFWLLVALCERMLPDYYNTRVVGALVDQGVFEELARDYVPQLYDCMQDLGVISTISLSWFLTLFLSVMPFESAVVVVDCFFYEGIKVIFQLALAVLDANVDKLLNCKDDGEAMTVLGRYLDSVTNKDSTLPPIPHLHSLLSDDVGPYPAVDIFRLIGTSYEKFGTIRADLIEQMRFKQRLKVIQTLEDTTKRNVVRTIVTETSFTIDELEELYALFKAEHLTSCYWGGSSNALDRHDPSLPYLEQYRIDFEQFKGMFVLLFPWACGTHSDVLASRLFQLLDENGDSLINFREFVSGLSAACHGDLTEKLKLLYKMHVLPEPSCDQDEPDSAFEATQYFFEDITPECTHVVGLDSRGKQSADDGFVTVSLKQDRGKRANSQENRNYLKLWTAENKSKSKTAKDLPKLNQGQFIELCKTMYNMFSEDPNEQELYHATAAVTSLLLEIGEVGKFFITQPAKEDAVPGPPCGQAIPGMLFPKKGSSQSYVVESTEPLTASLAVDSEEHSLGGQMEDIKLEDSSPRDNGACSSMLISDDDTKDDSSMSSYSVLSAGSHEEDKLHCEDIGEDTVLVRSSQGRATLPRSSSLDRDWAITFEQFLASLLTEPALVRYFDKPVCMMARVTSAKNIRMMGKPLTSASDYEISALSG
modifications: full-length
- Average logFC [1]: −1.25
- M1-1 Log2 Median Normalized [2]: −0.639
- M1-2 Log2 Median Normalized [3]: −1.148
- M2-1 Log2 Median Normalized [4]: −1.5035
- M2-2 Log2 Median Normalized [5]: −1.709
- change: down

B5: Q4V9W2 (protein, UniProt Q4V9W2 1-153, looked up)
chain: MAVPGCNKDNVRAGCRKCGYPGHLTFECRNFLRVDPKRDIVLDVSSTSSEDSDEENEELNKLQALQEKRINEEEEKKKEKSREKIKLKKRRKRSYSSATEEDSAKQKKQKYQKKEKKKEKKNKSKKGKHHKKEKKKRKKEKRSSPYHSELTKK
modifications: full-length
- Average logFC [6]: −1.36
- M1-1 Log2 Median Normalized [7]: −1.902
- M1-2 Log2 Median Normalized [8]: −0.824
- M2-1 Log2 Median Normalized [9]: −1.2515
- M2-2 Log2 Median Normalized [10]: −1.464
- change: down

B6: Q4VAH7 (protein, UniProt Q4VAH7 1-463, looked up)
chain: MGQDAFMELLRSMVGLSLCKIHLLLIAGSCLGLKVTVPSYTVHGIRGQALYLPVHYGFHTPASDIQIIWLFERSHTMPKYLLGSVNKSVVPDLEYQHKFTMMPPNASLLINPLQFTDEGNYIVKVNIQGNGTLSASQKIQVTVDDPVMKPMVQFHPASGAVEYVGNITLTCQVEGGTRLVYQWRKSGKPISINSSHSFSPQNNTLWIVPVTKEDIGNYTCLVSNPVSEMESDIIMPTIYYGPYGLQVNSDKGLKVGEVFTVDLGEAVLFDCSADSYPPNTYSWIQRSDNTTHVIKHGPHLEVASEKVAQKTADYVCCAYNNITGRRDETRFTVIITSVGLEKLAQRGKSLSPLASITGISLFLIISMCLLFLWKKYQPYKAIRQKLEGRPESEYRKAQTFSGHEDALSDFGIYEFVTFPDASGVSRMSSRSSPASDGVTGQDIHGTIYEVIQHIPEQQQENTE
modifications: full-length
- Average logFC [6]: 1.418
- M1-1 Log2 Median Normalized [7]: 1.047
- M1-2 Log2 Median Normalized [8]: 1.639
- M2-1 Log2 Median Normalized [9]: 1.2475
- M2-2 Log2 Median Normalized [10]: 1.739
- change: up

B7: Q3UW68 (protein, UniProt Q3UW68 1-665, looked up)
chain: MAHDAETSVVKFKNQDFRTLRDHCLSRGQLFIDDTFPAAASSIGEKLLRGKHLSKLEWKRPTSKDLPFYPPHFILEGASRFDIHQGIAGDCWFLAALGSLTQNPQCLQKILMDQSYSHQYAGIFQFRFWQCGQWVEVVIDDQLPVIGDNFLFVHPRGGNKEFWPCLMEKAYAKLLGSYSQLHYGYLPDALVDLTGGVVTIINLHSSPFDLLTTVKTAIQAGSMVACATENGLTEEAKVMENGLVSQHAYTVTGAEKIQYQGRWEDIIRLWNPWGKTEWKGRWKDGSKEWRETHDPRKSQLYENKEDGEFWMSCQDFQENFSCLFICNQIPITMDHGVTPNESWRQMRFTNQVISRNRAGGHGRDMQYVFSVQEHTAGNNVVVAFTIMPQSLNTEEERFPLQFQVFKVPQFQNVQGRLPPAFFSPFRSAAQGTKYVSKCNFTKSFHLNPGTYVVVTTANGKEVEFLLRIFLKMPDKHRDPSSNFNLRALKESLPENGSRNSISYTYMDQGLDIDATQLQSLLNQEFLTGPPGDTFSLDQCQSIMALMDLKVNGRLDQEEFARLRSRLIHCQHIFQSIQRRPGVLLSSDLWKVIENTDFLVGIFISSELLSLMALRYSDSSGRVSFPTLVCFLIRLETMAKAFRNLSKDGKGIYLTETEWMNLVMYS
modifications: full-length
- Average logFC [1]: −1.164
- M1-1 Log2 Median Normalized [2]: −1.402
- M1-2 Log2 Median Normalized [3]: −1.492
- M2-1 Log2 Median Normalized [4]: −1.0855
- M2-2 Log2 Median Normalized [5]: −0.676
- change: down
